Consider five molecules from US7897568B2, “Compositions for treatment of cancer” (priority 2006, dated 2011).

Assay [1] deals with SNCG (Homo sapiens, UniProt O76070). Description: Co-immunoprecipitation of EGFP-ANK deletion peptides with anti-SNCG antibody. The format is binding. On the set-up: expressed in transfected cells; host or cells: MCF7-SNCG (MCF7 stably expressing SNCG). The settings on record: MCF7-neo and MCF7-SNCG clones transfected with pEGFP-ANK deletion peptide plasmids.
The test system of assay [2] is MCF7-Neo cells. Description: Microinjection of ANK peptide then nocodazole, mitotic arrest/apoptosis count. The format is cell-based. Particulars: cells without ANK injection, 0.5 μM nocodazole for 24 hours. How it is done:
ANK peptide interference with SNCG-BubR1 association in vivo was examined in a stable breast cancer cell line MCF7 expressing SNCG (MCF7-SNCG) and a control SNCG negative cell line (MCF7-Neo). […] Significant numbers of cells survived after treatment with the ANK peptide by microinjection in both cell lines. After microinjection, cells were treated with 0.5 μM nocodazole for 24 hours and the fraction of mitotically arrested cells was counted.
MCF7-SNCG and MCF-Neo were grown to 80% confluence, split with trypsin and seeded on a 22 mm glass coverslip treated with human fibronectin ([…]) into 60 mm diameter dishes containing cell maintenance medium for 24 hours and utilized for the experiments. In initial experiments ANK peptide (5, 10 or 100 μM) was microinjected. In all further experiment to date, ANK peptide (10 μM), together with goat IgG (1 mg/ml) and fluoroscein isothiocyanate (FITC, 5 mg/ml; Molecular Probes) into the MCF7-SNCG or MCF7-Neo cells under a 40× magnification of phase contrast microscope (Carl Zeiss Inc.) using a pressure injection system (Femtojet, Eppendorf). To exclude the possibility that microinjection might affect cell cycle and proliferation, MCF7-Neo and MCF7-SNCG were microinjected with goat IgG as a control. Injections were done at a constant flow setup by varying the injection pressure Pc between 40-70 units. The microscope stage was kept at 37° C. using thermal control device (Tempcontrol-37-2 Digital). Approximately 25-30 cells were microinjected in each experiment (n=3). Cells were quickly incubated to revive. […]
For the immunofluorescence experiments, cells were fixed in 0.5% buffered paraformaldehyde for 8 minutes at room temperature. […] Cells were scored by identifying cells containing Alexa Fluor 488 excited at 488 nm, and the emission measured at 500-535 nm; DAPI was excited at 345 nm and the emission was measured at 445 nm. […] Mitotic index was determined as described by Gupta et al. (Oncogene 2003 22:7593-7599) and Inaba et al. Breast Cancer Res. Treat. […]

The target in assay [3] is T1, glutathione S-transferase (GST) (UniProt P08515 1-218 = GST).
T1 construct: Control for GST-SNCG in SPR
T1 sequence (P08515 whole entry): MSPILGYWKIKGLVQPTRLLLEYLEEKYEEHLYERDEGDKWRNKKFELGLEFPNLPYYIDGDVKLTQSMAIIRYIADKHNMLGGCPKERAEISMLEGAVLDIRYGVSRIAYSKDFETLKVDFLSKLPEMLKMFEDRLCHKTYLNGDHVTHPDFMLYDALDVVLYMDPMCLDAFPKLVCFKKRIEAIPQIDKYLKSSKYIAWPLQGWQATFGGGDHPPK
Description: SPR (BIACORE 3000), ANK peptide immobilised, GST as analyte. On the technique in general: In SPR one partner is held on a chip, and binding of the other changes the refractive index at the surface.

Assay [4] addresses T2, glutathione S-transferase (GST)-SNCG fusion protein (human, UniProt O76070 1-127).
T2 construct: Expressed in E. coli BL21 (DE3), eluted with reduced glutathione; Used as analyte in SPR, in the cell in ITC and as bait in the GST pull-down; not shown: glutathione S-transferase tag encoded by the pGEX-4T-3 vector (Amersham Biosciences); vector linker with thrombin site between GST and the BamH1 site
In words: SPR, ANK peptide immobilised, GST-SNCG analyte, apparent overall Kd.

The target in assay [5] is T3, synuclein-gamma (SNCG), recombinant, released from GST-SNCG by thrombin (human, UniProt O76070 1-127).
T3 construct: 15N-labelled for NMR; also called native SNCG; Breast Cancer Specific Gene 1
T3 sequence (O76070 whole entry): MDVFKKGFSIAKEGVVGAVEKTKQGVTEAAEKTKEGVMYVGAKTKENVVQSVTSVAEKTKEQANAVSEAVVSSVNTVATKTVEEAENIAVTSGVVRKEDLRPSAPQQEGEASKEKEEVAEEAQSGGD
Description: intrinsic tyrosine fluorescence of 30 µM SNCG titrated with ANK peptide.

Assay [6] addresses T2, glutathione S-transferase (GST)-SNCG …. Description: ITC, ANK peptide titrated into GST-SNCG, sequential binding site model, first binding site. (ITC needs no label: the signal is the heat of the interaction.)
For assay [7] the target is unchanged. Description: SPR, ANK peptide immobilised, GST-SNCG analyte, global fit, two-phase reaction (conformation change) model, kd1.
Assay [8] has the same target. In words: SPR, ANK peptide immobilised, GST-SNCG analyte, global fit, two-phase reaction (conformation change) model, kd2.
The target in assay [9] is SNCG expressed in cells (MCF7-SNCG, T47D, or COS7 transfected with pCI-SNCG) (UniProt O76070 1-127, limits assumed). In words: cell-based or functional assay.
Chain of SNCG expressed in cells (MCF7-SNCG, T47D, or COS7 transfected with pCI-SNCG) (O76070 whole entry, stated change not applied): as the sequence (O76070 whole entry) above

Where no end group is shown, it is not given here.

T2 sequence (O76070 whole entry, the tested form may be a part): as the sequence (O76070 whole entry) above
Chain of SNCG (O76070 whole entry): as above

As for “EGFP-ANK deletion peptide P12: EGFP fusion of deletion peptide P12 GNSALHVASQHG, expressed from pEGFP-C2 plasmid in cells (not fully specified (N-terminus); also: EGFP fusion protein (recombinant))”, in assay [1], the “interaction with SNCG by co-IP” value is on record as “identified to interact”.

On to `COC(=O)Nc1nc2ccc(C(=O)c3cccs3)cc2[nH]1` [nocodazole, reference compound], for which the “degree of mitotic arrest in MCF7-Neo cells as compared to MCF7-SNCG cells” value in assay [2] is recorded as “significantly higher degree of mitotic arrest”.

In the case of “EGFP-ANK deletion peptide P8: EGFP fusion of deletion peptide P8 GANVTMQN, expressed from pEGFP-C2 plasmid in cells (not fully specified (N-terminus); also: EGFP fusion protein (recombinant))”, the “interaction with SNCG by co-IP” value in [1] is recorded as “identified to interact”.

B1: ANK peptide KGNSALHVASQHGHLGCIQTLVRYGANVTMQNHG (SEQ ID NO:1) (peptide)
peptide: Ac-KGNSALHVASQHGHLGCIQTLVRYGANVTMQNHG-NH2
notes: For SPR it was immobilised on a CM5 chip by ligand thiol coupling; also called ankyrin repeat-like peptide
The koff is the rate constant with which the complex falls apart. Low values mean slow dissociation, high ones fast dissociation. Consider B1, for which, in [3], the binding result is on record as “no binding”. Also, the results for the Kd in [4], in [5] and in assay [6] were 73.4 µM, around 100 µM and 70 µM, respectively. In addition, the ΔH in assay [6] came out at 2.17 kcal/mol. The koff is 0.014 s⁻¹ in assay [7] and 0.000802 s⁻¹ in assay [8].

B2: enhanced green fluorescent protein (EGFP)-ANK fusion protein (other, not shown: large carriers)
chain: KGNSALHVASQHGHLGCIQTLVRYGANVTMQNHG
modifications: not fully specified (N-terminus); also: EGFP fusion protein (recombinant)
Consider B2, for which, in assay [9], the “apoptotic cell populations (DAPI staining) after paclitaxel” value turned out to be 5 fold; the “apoptotic/dead cell population, flow cytometric cell cycle analysis after 0.5 µM paclitaxel, MCF7-SNCG cells” value was around 4 fold; the “positive phosphorylated histones (anti-phospho-H3 staining, flow cytometry), MCF7-SNCG cells” value was determined as 3.5 fold.
